Reference: patent US20100173362A1 (published 2010)

B1: Chimeric 2B8 / Hu2B8_Hv1-f.1 (antibody, V domains shown)
VH: EVQLVQSGAEVKKPGATVKISCKVSGYTFTTYWMHWVQQAPGKGLEWMGEINPTNGHTNYNEKFQGRVTITADTSTDTAYMELSSLRSEDTAVYYCATNYVGSIFDYWGQGTLVTVSS
VL: NIVMTQSPKSMSMSVGERVTLSCKASENVVSYVSWYQQKPAQSPKLLIYGASNRNTGVPDRFTGSGSATDFTLTISSVRAEDLADYHCGQSYNYPYTFGGGTRLEIKR
B2: Hu2B8_Kv1-39.1 / Hu2B8_Hv1-f.1 (antibody, V domains shown)
VH: B1 VH
VL: DIQMTQSPSSLSASVGDRVTITCKASENVVSYVSWYQQKPGKAPKLLIYGASNRNTGVPSRFSGSGSGTDFTLTISSLQPEDFATYYCGQSYNYPYTFGQGTKLEIKR
B3: chimeric 2B8 (antibody, V domains shown)
VH: QVQLQQPGAELVKPGTSVKLSCKASGYTFTTYWMHWVNQRPGQGLEWIGEINPTNGHTNYNEKFKSKATLTVDKSSSTAYMQLSSLTSEDSAVYYCARNYVGSIFDYWGQGTTLTVSS
VL: B1 VL
B4: Chimeric 2B8 / Hu2B8_Hv5-a.1 (antibody, V domains shown)
VH: EVQLVQSGAEVKKPGESLRISCKGSGYSFTTYWMHWVRQMPGKGLEWMGEINPTNGHTNYNPSFQGHVTISADKSISTAYLQWSSLKASDTAMYYCARNYVGSIFDYWGQGTLVTVSS
VL: B1 VL
B5: Hu2B8_Kv3-15.1 / Hu2B8_Hv1-f.1 (antibody, V domains shown)
VH: B1 VH
VL: EIVMTQSPATLSVSPGERATLSCKASENVVSYVSWYQQKPGQAPRLLIYGASNRNTGIPARFSGSGSGTEFTLTISSLQSEDFAVYYCGQSYNYPYTFGQGTKLEIKR
B6: Hu2B8_Kv3-15.1 / Hu2B8_Hv5-a.1 (antibody, V domains shown)
VH: B4 VH
VL: B5 VL
B7: Hu2B8_Kv1-39.1 / Chimeric 2B8 (antibody, V domains shown)
VH: B3 VH
VL: B2 VL
B8: Hu2B8_Kv3-15.1 / Chimeric 2B8 (antibody, V domains shown)
VH: B3 VH
VL: B5 VL
B9: Hu2B8_Kv1-39.1 / Hu2B8_Hv5-a.1 (antibody, V domains shown)
VH: B4 VH
VL: B2 VL

Biological target: recombinant human HGF (R&D Systems, Catalog No. 294-HGN-025) (human, UniProt P14210 32-728)
Test: SPR

Chain of recombinant human HGF (R&D Systems, Catalog No. 294-HGN-025) (P14210 32-728): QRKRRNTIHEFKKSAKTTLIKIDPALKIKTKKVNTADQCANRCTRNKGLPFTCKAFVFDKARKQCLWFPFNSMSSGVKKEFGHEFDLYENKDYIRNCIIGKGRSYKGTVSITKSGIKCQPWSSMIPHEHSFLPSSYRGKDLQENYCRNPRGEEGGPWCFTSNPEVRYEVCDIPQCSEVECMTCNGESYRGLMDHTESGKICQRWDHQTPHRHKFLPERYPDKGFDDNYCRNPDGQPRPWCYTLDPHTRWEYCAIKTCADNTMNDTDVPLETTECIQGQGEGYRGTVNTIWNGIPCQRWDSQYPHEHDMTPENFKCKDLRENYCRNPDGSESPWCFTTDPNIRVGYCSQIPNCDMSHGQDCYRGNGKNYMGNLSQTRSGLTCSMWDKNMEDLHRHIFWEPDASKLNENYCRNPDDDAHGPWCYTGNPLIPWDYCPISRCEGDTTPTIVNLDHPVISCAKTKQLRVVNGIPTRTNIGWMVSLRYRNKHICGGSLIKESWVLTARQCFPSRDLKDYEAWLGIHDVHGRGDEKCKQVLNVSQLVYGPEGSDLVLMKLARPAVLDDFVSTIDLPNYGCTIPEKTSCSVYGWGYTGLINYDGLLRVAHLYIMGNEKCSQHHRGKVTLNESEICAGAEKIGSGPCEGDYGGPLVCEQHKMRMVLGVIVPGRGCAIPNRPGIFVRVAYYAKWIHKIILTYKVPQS

| Kd | Binder |
| --- | --- |
| 0.662 nM | B1 |
| 0.294 nM | B2 |
| 0.0116 nM | B3 |
| 0.0044 nM | B4 |
| 0.466 nM | B5 |
| 0.0269 nM | B6 |
| 0.0136 nM | B7 |
| 0.0055 nM | B8 |
| 0.0147 nM | B9 |
